Laboratory results taken from paper PMC7397871.

Biological target: T1, ZC3H12B PIN + C3H1 crystallization construct (Homo sapiens, UniProt Q5HYM0 179-380)
T1 sequence: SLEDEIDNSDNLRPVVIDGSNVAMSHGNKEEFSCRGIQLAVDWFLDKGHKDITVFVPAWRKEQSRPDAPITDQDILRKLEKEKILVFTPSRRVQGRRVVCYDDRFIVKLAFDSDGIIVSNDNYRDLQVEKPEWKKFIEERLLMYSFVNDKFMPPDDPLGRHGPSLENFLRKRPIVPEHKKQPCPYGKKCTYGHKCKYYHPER
Assay: X-ray crystallography

AAUGCGACAGUCGGUAGCAUC (ssRNA, phosphorothioate between nt 1 and 2 (5' end)) [21-nt HTR-SELEX-enriched RNA]
binding result: binds
